Laboratory results taken from the supplement of paper PMC9112550, “Optimization of the antimicrobial peptide Bac7 by deep mutational scanning” (BMC Biology, 2022).

Test system: Escherichia coli TOP10
Assay: shrunken log2 fold change of peptide-encoding DNA abundance (4.5 h post-induction vs induction); higher = less antimicrobial activity (less host growth inhibition)
Details: time post-induction: 4.5 h; library: site-saturation at positions 5, 18, 19, 20
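Also: peptides expressed intracellularly from a pBAD plasmid library in pooled LB shake-flask culture, induced with 0.3% L-arabinose, DNA abundance read by NGS, three biological replicates, DESeq2 with apeglm shrinkage.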

Row | Sequence | shrunken log2 fold change
1 | RRIRNRPPRLPRPRPRPMIPPRP | 0.0389
2 | RRIRIRPPRLPRPRPRPHLCPRP | 0.0475
3 | RRIRMRPPRLPRPRPRPCGWPRP | 1.03
4 | RRIRGRPPRLPRPRPRPFSKPRP | 0.164
5 | RRIRFRPPRLPRPRPRPFFHPRP | -0.18
6 | RRIRPRPPRLPRPRPRPKNMPRP | -0.436
7 | RRIRLRPPRLPRPRPRPCWMPRP | -0.168
8 | RRIRVRPPRLPRPRPRPSFEPRP | -0.214
9 | RRIRCRPPRLPRPRPRPKRKPRP | 0.157
10 | RRIRNRPPRLPRPRPRPTAHPRP | 0.0105
11 | RRIRWRPPRLPRPRPRPAYVPRP | 0.0521
12 | RRIRARPPRLPRPRPRPMICPRP | 0.0985
13 | RRIRERPPRLPRPRPRPHYSPRP | -0.16
14 | RRIRLRPPRLPRPRPRPTMCPRP | -0.0109
15 | RRIRIRPPRLPRPRPRPWVLPRP | -0.142
16 | RRIRSRPPRLPRPRPRPSEHPRP | -0.579
17 | RRIRPRPPRLPRPRPRPWYEPRP | -0.441
18 | RRIRLRPPRLPRPRPRPMNWPRP | 0.134
19 | RRIRMRPPRLPRPRPRPVITPRP | 0.043
20 | RRIRYRPPRLPRPRPRPVPFPRP | -0.348
21 | RRIRPRPPRLPRPRPRPMCMPRP | -0.32
22 | RRIRDRPPRLPRPRPRPQMQPRP | 0.135
23 | RRIRPRPPRLPRPRPRPVYLPRP | -0.6
24 | RRIRHRPPRLPRPRPRPSFEPRP | -0.358
25 | RRIRLRPPRLPRPRPRPCRAPRP | 0.146

Row | Sequence | shrunken log2 fold change
26 | RRIRDRPPRLPRPRPRPFYHPRP | -0.124
27 | RRIRQRPPRLPRPRPRPVSDPRP | -0.0568
28 | RRIRFRPPRLPRPRPRPAEWPRP | 0.512
29 | RRIRPRPPRLPRPRPRPPSNPRP | -0.0339
30 | RRIRCRPPRLPRPRPRPHEDPRP | -0.157
31 | RRIRFRPPRLPRPRPRPYMVPRP | -0.953
32 | RRIRIRPPRLPRPRPRPMGCPRP | 0.00177
33 | RRIRARPPRLPRPRPRPKDHPRP | 0.175
34 | RRIRQRPPRLPRPRPRPLTYPRP | -0.13
35 | RRIRSRPPRLPRPRPRPMVVPRP | 0.149
36 | RRIRPRPPRLPRPRPRPYQEPRP | -0.418
37 | RRIRTRPPRLPRPRPRPKVVPRP | 2.37
38 | RRIRIRPPRLPRPRPRPFRCPRP | -0.192
39 | RRIRSRPPRLPRPRPRPTLAPRP | 0.542
40 | RRIRDRPPRLPRPRPRPPAWPRP | 0.811
41 | RRIRYRPPRLPRPRPRPICWPRP | 0.142
42 | RRIRDRPPRLPRPRPRPNPLPRP | 1.05
43 | RRIRQRPPRLPRPRPRPCYYPRP | -0.265
44 | RRIRLRPPRLPRPRPRPENFPRP | 0.0173
45 | RRIRSRPPRLPRPRPRPGPEPRP | 0.221
46 | RRIRERPPRLPRPRPRPTHNPRP | -0.206
47 | RRIRTRPPRLPRPRPRPIYAPRP | 0.0866
48 | RRIRRRPPRLPRPRPRPFSHPRP | -0.0121
49 | RRIRFRPPRLPRPRPRPTYHPRP | -0.428
50 | RRIRQRPPRLPRPRPRPGYCPRP | -0.0255

Row | Sequence | shrunken log2 fold change
51 | RRIRYRPPRLPRPRPRPKQNPRP | -0.473
52 | RRIRARPPRLPRPRPRPEQNPRP | 0.928
53 | RRIRNRPPRLPRPRPRPKVIPRP | -0.264
54 | RRIRTRPPRLPRPRPRPMDEPRP | -0.219
55 | RRIRMRPPRLPRPRPRPPCCPRP | 0.928
56 | RRIRARPPRLPRPRPRPTTHPRP | 0.38
57 | RRIRIRPPRLPRPRPRPCHRPRP | -0.452
58 | RRIRQRPPRLPRPRPRPMACPRP | -0.159
59 | RRIRFRPPRLPRPRPRPCCMPRP | -0.579
60 | RRIRHRPPRLPRPRPRPYQHPRP | -0.0148
61 | RRIRERPPRLPRPRPRPCSVPRP | -0.0625
62 | RRIRSRPPRLPRPRPRPQVGPRP | -0.175
63 | RRIRHRPPRLPRPRPRPISRPRP | -0.0532
64 | RRIRYRPPRLPRPRPRPHWMPRP | -0.233
65 | RRIRQRPPRLPRPRPRPCAQPRP | 0.308
66 | RRIRIRPPRLPRPRPRPSRRPRP | 0.35
67 | RRIRKRPPRLPRPRPRPGKYPRP | 0.0356
68 | RRIRWRPPRLPRPRPRPPQPPRP | 0.66
69 | RRIRIRPPRLPRPRPRPSVMPRP | -0.286
70 | RRIRHRPPRLPRPRPRPAAIPRP | 0.0732
71 | RRIRFRPPRLPRPRPRPHGTPRP | -0.134
72 | RRIRGRPPRLPRPRPRPMKKPRP | 1.17
73 | RRIRDRPPRLPRPRPRPMKAPRP | 0.0349
74 | RRIRLRPPRLPRPRPRPVVCPRP | -0.0501
75 | RRIRLRPPRLPRPRPRPPETPRP | 0.0221

Row | Sequence | shrunken log2 fold change
76 | RRIRRRPPRLPRPRPRPANGPRP | -0.164
77 | RRIRSRPPRLPRPRPRPYLHPRP | -0.757
78 | RRIRTRPPRLPRPRPRPIWVPRP | -0.0869
79 | RRIRMRPPRLPRPRPRPAVGPRP | 0.5
80 | RRIRTRPPRLPRPRPRPAHTPRP | 0.09
81 | RRIRCRPPRLPRPRPRPYEPPRP | -0.151
82 | RRIRMRPPRLPRPRPRPYNDPRP | 0.0185
83 | RRIRKRPPRLPRPRPRPWGWPRP | 0.691
84 | RRIRCRPPRLPRPRPRPKYRPRP | -0.326
85 | RRIRYRPPRLPRPRPRPAEWPRP | 0.00902
86 | RRIRPRPPRLPRPRPRPWDLPRP | -0.0362
87 | RRIRDRPPRLPRPRPRPNILPRP | -0.437
88 | RRIRVRPPRLPRPRPRPKQIPRP | -0.0455
89 | RRIRGRPPRLPRPRPRPEMTPRP | 3.26
90 | RRIRVRPPRLPRPRPRPWNEPRP | -0.0886
91 | RRIRVRPPRLPRPRPRPRYGPRP | -0.392
92 | RRIRPRPPRLPRPRPRPATVPRP | -0.0314
93 | RRIRERPPRLPRPRPRPGQFPRP | -0.295
94 | RRIRSRPPRLPRPRPRPNSIPRP | -0.861
95 | RRIRSRPPRLPRPRPRPFDAPRP | -0.279
96 | RRIRFRPPRLPRPRPRPEAQPRP | 0.383
97 | RRIRSRPPRLPRPRPRPQSQPRP | -0.258
98 | RRIRQRPPRLPRPRPRPCINPRP | -0.0449
99 | RRIRARPPRLPRPRPRPRYFPRP | -0.0939
100 | RRIRLRPPRLPRPRPRPTTMPRP | -0.439

Row | Sequence | shrunken log2 fold change
101 | RRIRERPPRLPRPRPRPYTTPRP | -0.49
102 | RRIRSRPPRLPRPRPRPQNNPRP | -0.573
103 | RRIRSRPPRLPRPRPRPGAAPRP | 0.603
104 | RRIRQRPPRLPRPRPRPCMQPRP | -0.238
105 | RRIRERPPRLPRPRPRPEICPRP | 0.162
106 | RRIRQRPPRLPRPRPRPTPEPRP | 0.0617
107 | RRIRFRPPRLPRPRPRPHFEPRP | -0.185
108 | RRIRNRPPRLPRPRPRPGTSPRP | -0.0337
109 | RRIRWRPPRLPRPRPRPDENPRP | 0.644
110 | RRIRWRPPRLPRPRPRPCETPRP | -0.0636
111 | RRIRSRPPRLPRPRPRPWQEPRP | 0.131
112 | RRIRKRPPRLPRPRPRPDVTPRP | 1.47
113 | RRIRARPPRLPRPRPRPREFPRP | 0.441
114 | RRIRKRPPRLPRPRPRPFTYPRP | -0.0389
115 | RRIRMRPPRLPRPRPRPAPIPRP | 0.618
116 | RRIRIRPPRLPRPRPRPNHPPRP | -0.469
117 | RRIRERPPRLPRPRPRPNFHPRP | -0.382
118 | RRIRGRPPRLPRPRPRPRKDPRP | 0.726
119 | RRIRNRPPRLPRPRPRPRCMPRP | -0.5
120 | RRIRYRPPRLPRPRPRPLVCPRP | -0.325
121 | RRIRQRPPRLPRPRPRPDEVPRP | 0.0037
122 | RRIRHRPPRLPRPRPRPPANPRP | 0.478
123 | RRIRRRPPRLPRPRPRPEATPRP | 2.74
124 | RRIRARPPRLPRPRPRPRSVPRP | 0.665
125 | RRIRSRPPRLPRPRPRPLPTPRP | 0.446

Row | Sequence | shrunken log2 fold change
126 | RRIRMRPPRLPRPRPRPIDSPRP | 0.165
127 | RRIRFRPPRLPRPRPRPCQMPRP | -0.981
128 | RRIRTRPPRLPRPRPRPFLDPRP | -0.553
129 | RRIRLRPPRLPRPRPRPVYDPRP | -0.0147
130 | RRIRIRPPRLPRPRPRPYEYPRP | -0.0772
131 | RRIRWRPPRLPRPRPRPCSLPRP | -0.0592
132 | RRIRYRPPRLPRPRPRPPFEPRP | -0.0385
133 | RRIRKRPPRLPRPRPRPPFYPRP | 0.229
134 | RRIRSRPPRLPRPRPRPPDTPRP | 0.237
135 | RRIRCRPPRLPRPRPRPNYMPRP | -0.677
136 | RRIRKRPPRLPRPRPRPRQKPRP | -0.0264
137 | RRIRPRPPRLPRPRPRPPTQPRP | 0.12
138 | RRIRARPPRLPRPRPRPYHEPRP | -0.167
139 | RRIRMRPPRLPRPRPRPVVSPRP | 0.095
140 | RRIRDRPPRLPRPRPRPKSNPRP | -0.305
141 | RRIRPRPPRLPRPRPRPVGFPRP | 0.37
142 | RRIRMRPPRLPRPRPRPDVSPRP | 2.14
143 | RRIRMRPPRLPRPRPRPCQQPRP | 0.0325
144 | RRIRCRPPRLPRPRPRPMMLPRP | -0.117
145 | RRIRKRPPRLPRPRPRPHISPRP | -0.00759
146 | RRIRERPPRLPRPRPRPMDLPRP | -0.199
147 | RRIRMRPPRLPRPRPRPARRPRP | 1.35
148 | RRIRMRPPRLPRPRPRPTVVPRP | 0.0159
149 | RRIRPRPPRLPRPRPRPDAFPRP | 0.342
150 | RRIRIRPPRLPRPRPRPHCFPRP | -0.824
